The data set concerns the molecule itself. Put plainly: crystal structure.

B1: Nep1 from Archaeoglobus fulgidus (enzyme)
chain: MGSAFVFLEASLELIPQKIRGHPAVRADAIRRGKRPEKILLDDSKHHTAMKSLEFREKRGRPDIVHQCLLLLLDSPLRDFEVYVHTLNGEIIWVNRETRLPRNYNRFVGLMEKLFEERRITAGDTTLIEFKDVGLRDIVRGRDVLLFREKGGRFEFSELLDGDVAVCIGAFPHGDFFEETLRELGEFKEVSLGTESYTSLYVTSRVLCEYERVRAHKVG
For B1, the binding result is “binds”.
